One may read the stoichiometry N as the number of molecules, sites or subunits per partner or assembly.

The target of this experiment is soluble C-terminally truncated HAP2 ectodomain (HAP2e), residues 23-592, Chlamydomonas reinhardtii (Chlamydomonas reinhardtii) (UniProt A4GRC6). Briefly: SEC-MALS. For orientation: SEC sorts molecules by how far they enter the pores of the column.

With “soluble C-terminally truncated HAP2 ectodomain (HAP2e), residues 23-592, Chlamydomonas reinhardtii (from UniProt A4GRC6 23-592) (domain or fragment)”, the stoichiometry N came out at 6.

Values taken from paper PMC5332557.
